Test [1] addresses SARS-CoV-2 S S477N on CHO cells (SARS-CoV-2) (UniProt P0DTC2).
Test [2] concerns the target SARS-CoV-2 S S494P on CHO cells (SARS-CoV-2) (UniProt P0DTC2).
In test [3] the target is RBD-Fc L452R (SARS-CoV-2) (UniProt P0DTC2).
For test [4], the target named is SARS-CoV-2 S N501Y on CHO cells (SARS-CoV-2) (UniProt P0DTC2).
Test [5] has as its target SARS-CoV-2 S D614G on CHO cells (SARS-CoV-2) (UniProt P0DTC2).
Test [6] has as its target SARS-CoV-2 S N439K on CHO cells (SARS-CoV-2) (UniProt P0DTC2).
The target of test [7] is RBD-Fc K417T (SARS-CoV-2) (UniProt P0DTC2).
Test [8] deals with RBD-Fc K417N (SARS-CoV-2) (UniProt P0DTC2).
Test [9] has as its target SARS-CoV-2 S D614G on CHO cells (SARS-CoV-2) (UniProt P0DTC2). This is another data set of the same source.
The target in test [10] is RBD N440D on yeast (SARS-CoV-2) (UniProt P0DTC2).
The target of test [11] is RBD-Fc D420N (SARS-CoV-2) (UniProt P0DTC2).
The target in test [12] is RBD-Fc E484K (SARS-CoV-2) (UniProt P0DTC2).
Test [13] concerns the target RBD-Fc Y453F (SARS-CoV-2) (UniProt P0DTC2).
The target in test [14] is RBD-Fc K417E (SARS-CoV-2) (UniProt P0DTC2).
Test [15] concerns the target SARS-CoV-2 S S494P on CHO cells (SARS-CoV-2) (UniProt P0DTC2). This is another data set of the same source.
Test [16] addresses RBD-Fc L452R (SARS-CoV-2) (UniProt P0DTC2). The source holds these as a separate data set.
Test [17] concerns the target RBD-Fc F490S (SARS-CoV-2) (UniProt P0DTC2). Briefly: SPR. (Surface plasmon resonance follows binding to a sensor surface in real time, without labels.)
Test [18] addresses RBD-Fc D420N (SARS-CoV-2) (UniProt P0DTC2). Briefly: SPR.
For test [19], the target named is RBD-Fc E484Q (SARS-CoV-2) (UniProt P0DTC2). The experiment in a line: SPR.
Test [20] has as its target RBD-Fc E484D (SARS-CoV-2) (UniProt P0DTC2). Briefly: SPR.
Test [21] has as its target RBD-Fc E484K (SARS-CoV-2) (UniProt P0DTC2). Briefly: SPR.
Test [22] has as its target RBD-Fc N460K (SARS-CoV-2) (UniProt P0DTC2). The experiment in a line: SPR.
Test [23] addresses RBD-Fc N460S (SARS-CoV-2) (UniProt P0DTC2). The experiment in a line: SPR.
The target of test [24] is RBD-Fc F486V (SARS-CoV-2) (UniProt P0DTC2). Briefly: SPR.
Test [25] addresses RBD-Fc Y453F (SARS-CoV-2) (UniProt P0DTC2). Briefly: SPR.
The target in test [26] is RBD-Fc K417E (SARS-CoV-2) (UniProt P0DTC2). Briefly: SPR.
The target of test [27] is RBD-Fc V483A (SARS-CoV-2) (UniProt P0DTC2). The experiment in a line: SPR.
Test [28] deals with RBD-Fc N501Y (SARS-CoV-2) (UniProt P0DTC2). Briefly: SPR.
The target of test [29] is RBD-Fc N460T (SARS-CoV-2) (UniProt P0DTC2). The experiment in a line: SPR.
In test [30] the target is RBD-Fc S477N (SARS-CoV-2) (UniProt P0DTC2). The experiment in a line: SPR.
Test [31] has as its target RBD-Fc L452R (SARS-CoV-2) (UniProt P0DTC2). The experiment in a line: SPR.
Test [32] deals with RBD-Fc F486I (SARS-CoV-2) (UniProt P0DTC2). Briefly: SPR.
The target in test [33] is RBD-Fc Y489H (SARS-CoV-2) (UniProt P0DTC2). The experiment in a line: SPR.
Test [34] addresses RBD-Fc S494P (SARS-CoV-2) (UniProt P0DTC2). Briefly: SPR.
Test [35] deals with RBD-Fc K417T (SARS-CoV-2) (UniProt P0DTC2). The experiment in a line: SPR.
Test [36] addresses RBD-Fc G476S (SARS-CoV-2) (UniProt P0DTC2). Briefly: SPR.
In test [37] the target is RBD-Fc N439K (SARS-CoV-2) (UniProt P0DTC2). The experiment in a line: SPR.
For test [38], the target named is RBD-Fc K417N (SARS-CoV-2) (UniProt P0DTC2). The experiment in a line: SPR.

Some results are limits rather than exact numbers.

Regarding “LY-CoV1404 (bebtelovimab), full-length human IgG1 mAb (antibody)”, the VSV pseudovirus neutralisation IC50 in [1] worked out at 5 ng/mL; in test [2], 2 ng/mL; in test [4], 2 ng/mL; in test [6], 2 ng/mL. Moreover, the VSV pseudovirus neutralisation IC90 in [1] amounted to 26 ng/mL; in [4] it was 7 ng/mL; in test [6], 7 ng/mL. Further, the VSV pseudovirus (whole S) neutralisation IC50 was less than 1 ng/mL in test [3], 2 ng/mL in test [7] and 2 ng/mL in test [8]. The lentiviral pseudovirus (whole S) neutralisation IC90 in test [3] is 10 ng/mL. Besides, the lentiviral pseudovirus neutralisation IC50 in test [5] turned out to be 3 ng/mL. This substance also registered a lentiviral pseudovirus neutralisation IC90 in test [5] of 10 ng/mL. Besides, the pseudovirus neutralisation (second system of Table 3D), IC50 in test [9] was 3 ng/mL. In addition, the pseudovirus (whole S) susceptibility IC50 came out at 6 ng/mL in test [10]; 2 ng/mL in test [11]; 2 ng/mL in test [12]; 2 ng/mL in test [13]; 4 ng/mL in test [14]; 2 ng/mL in [16]. The substance also registered a pseudovirus susceptibility IC50 in test [15] of 1 ng/mL.

Usually Kd stands for the free concentration of one partner at which half of the binding sites on the other are occupied at equilibrium, for simple one-to-one binding. Read a high Kd as lower affinity. With LY-CoV1404 Fab (papain digestion), the Kd in test [17] is 2.99 nM; in test [18] it was 4.09 nM; in test [19], 3.74 nM; in [20] it was 3.37 nM; in [21] it was 3.19 nM; in test [22], 3.4 nM. Besides, the Kd in test [23] is 2.6 nM; in [24], 2.82 nM; in test [25] it was 3.28 nM; in [26] it was 2.59 nM; in [27], 3.29 nM; in test [28], 2.9 nM. Besides, the Kd in test [29] turned out to be 3.52 nM; in test [30] it was 3.45 nM; in test [31] it was 4.94 nM; in [32], 2.69 nM; in test [33], 3.06 nM; in test [34], 3.46 nM. Moreover, the Kd is 2.54 nM in test [35], 4.35 nM in test [36], 5.05 nM in test [37] and 3.08 nM in [38].
